{"source": "patent US8217140B2", "about": "“Peptides capable of binding to serum proteins and compounds, constructs and polypeptides comprising the same” (Ablynx N.V., priority 2008, dated 2012)", "molecules": {"B1": {"name": "12A2_sv1-AAA-12A2_sv1-9GS-59C2 (protein)", "chain": "DVQLVESGGGLVQPGGSLRLSCAASGRTFSYNPMGWFRQAPGKGRELVAAISRTGGSTYYPESVEGRFTISRDNAKRTVYLQMNSLRAEDTAVYYCAAAGVRAEQGRVRTLPSEYTFWGQGTQVTVSSAAAEVQLVESGGGLVQPGGSLRLSCAASGRTFSYNPMGWFRQAPGKGRELVAAISRTGGSTYYPESVEGRFTISRDNAKRTVYLQMNSLRAEDTAVYYCAAAGVRAEQGRVRTLPSEYTFWGQGTQVTVSSGGGGSGGGSRDWDFDVFGGGTPVGG"}}, "key": {"VWF": {"tested_on": "VWF", "experiment": "Pharmacodynamic profile: ristocetin cofactor activity assay (% RICO) after i.v. administration", "format": "in vivo, Cynomolgus monkey", "description": "For the constructs used in Example 14, pharmacodynamic characteristics upon compound administration were measured by means of a ristocetin cofactor activity assay (Biopool). The ristocetin cofactor activity is a functional assay for VWF, measuring the capacity of VWF to interact with the platelet receptor glycoprotein Ib using ristocetin as a modulator.\nFor pharmacodynamic data analysis, descriptive statistics (mean and SD) were calculated per dose group and per sampling time point using Microsoft Excel 2007. Response parameters and associated statistics for the overall time course were calculated by noncompartmental analysis of the response-time data using WinNonlin Pro 5.1 (Pharsight Corporation, USA; 2006). The non-compartmental analysis was based on a model for pharmacodynamic data (Model 220). The threshold value was set at 20% based on extensive historical PK/PD data on the vWF-0001 compound. Preclinical studies have shown that a complete inhibition of the pharmacodynamic marker are correlated with full antithrombotic efficacy. The following main pharmacodynamic parameters were determined: time below the threshold (Time below T), area under the threshold (AUC below T), time at which the % RICO first drops below the threshold (Tonset), and time at which the % RICO first returns back above the threshold (Toffset)."}, "[1]": {"tested_on": "platelet adhesion to fibrillar collagen", "experiment": "Perfusion experiments: platelet adhesion to collagen at arterial shear rate", "format": "cell-based, human", "description": "The perfusion experiments were performed with a single-pass perfusion chamber under non-pulsatile flow conditions using a modified small perfusion chamber with a slit height of 0.1 mm and a slit width of 2 mm. […] Citrated human blood was preincubated at 37° C. for 5 min with or without addition of test compound, and then perfused through the chamber for 5 min at a wall shear rate of 1600 s^−1 using an infusion/withdrawal pump (pump 22, model 2400-004, Harvard Apparatus, Holliston, Mass.). After the perfusion run, the coverslips were rinsed in Hepes buffered saline (10 mM Hepes, 150 mM NaCl, pH 7.4) and platelets were fixed with 5% glutaraldehyde and stained with May-Grünwald and Giemsa. Platelet deposition of the coverslip was evaluated as platelet surface coverage of 10 randomly chosen pictures using light microscopy (Olympus BX61 microscope using Analysis Five digital imaging solutions analysis software)."}, "cynoSA": {"target": "cynoSA (Macaca fascicularis, UniProt A2V9Z4)", "sequence (A2V9Z4 25-608)": "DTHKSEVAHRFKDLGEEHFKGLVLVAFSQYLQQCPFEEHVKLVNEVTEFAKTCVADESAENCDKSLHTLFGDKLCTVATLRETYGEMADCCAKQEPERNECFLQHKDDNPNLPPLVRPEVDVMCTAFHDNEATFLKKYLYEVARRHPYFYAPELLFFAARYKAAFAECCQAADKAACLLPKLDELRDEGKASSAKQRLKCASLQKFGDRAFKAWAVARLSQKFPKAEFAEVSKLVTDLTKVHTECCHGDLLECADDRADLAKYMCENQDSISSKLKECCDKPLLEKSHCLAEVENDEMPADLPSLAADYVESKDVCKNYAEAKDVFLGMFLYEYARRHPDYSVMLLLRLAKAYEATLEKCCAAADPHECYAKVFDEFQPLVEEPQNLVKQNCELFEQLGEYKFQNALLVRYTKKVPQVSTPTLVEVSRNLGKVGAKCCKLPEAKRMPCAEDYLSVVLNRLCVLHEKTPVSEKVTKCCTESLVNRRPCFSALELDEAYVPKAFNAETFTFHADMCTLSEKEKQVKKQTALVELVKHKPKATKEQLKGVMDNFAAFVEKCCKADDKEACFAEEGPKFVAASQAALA", "experiment": "Biacore analysis of pH dependency of binding", "design": "species or system cynomolgus monkey", "description": "(§1) The pH dependent binding of vWF0055 on HSA and cynoSA was investigated by surface plasmon resonance using a Biacore 3000 instrument by assessing the affinity at three different pH's. In brief, HSA and cynoSA were amine-coupled to a separate CM5 sensor chip at a density of respectively 1800RU and 1900RU. Diluted samples, ranging in concentration between 25 nM to 1 μM vW0055 were prepared in three buffers. The three buffers used contained 50 mM phosphate, 150 mM NaCl and 0.005% surfactant P and were adjusted to either pH5, pH7 or pH8. Samples were injected at a flow-rate of 45 μL/min, association and dissociation were monitored during 120 sec and 300 sec. Binding curves were subsequently used to calculate the KD, association- and dissociation-rate constants with the BiaEvaluation software."}, "[2]": {"experiment": "Chemical stability on storage at 37° C., RP-HPLC", "format": "physicochemical", "conditions": "4 weeks incubation at 37° C. in D-PBS", "description": "To evaluate the chemical stability of vWF0055, the Nanobody® vWF0055 was stored at 37° C. After 1, 2 and 4 weeks a sample was taken and analyzed for chemical or proteolytic modifications via RP-HPLC (Zorbax 300SB-C3, 4.6×150 mm (5 μm); trifluoroacetic acid/acetonitrile)."}, "[3]": {"conditions": "cynomolgus monkey, in vivo", "description": "The pharmacokinetic profile of the constructs was analyzed in male cynomolgus monkeys of approximately 3 to 4 years old and was compared to the reference (SEQ ID NO:165). The constructs and the control were each injected in three monkeys at a dose of 2 mg/kg via an intravenous bolus injection. Blood samples were taken at predose, 5 min, 20 min, 1 h, 2 h, 4 h, 8 h (test day 1) after administration and at test days 2, 3, 5, 7, 9, 12, 15, 18, 21, 24, 27, 30, 33. In order to obtain at least 1 mL plasma per animal per sampling time, a sufficient volume of whole blood was withdrawn per sampling time. Plasma was collected after whole blood centrifugation for 30 minutes at 2200 g at room temperature (RT). The plasma samples were stored at −80° C. until analysis.\nFor bioanalytical determination of constructs and control article in monkey plasma, plasma samples were tested for levels of constructs and the control using ELISA based PK assays. The detection of control and constructs in the ELISA assays is based on the binding of these Nanobodies with vWF and the assay set-ups are as such that total vWF-binding Nanobody is detected.\nFor the reference (SEQ ID NO:165) and the construct of SEQ ID NO:167, 96-well microtiter plates (Maxisorp, Nunc, Wiesbaden, Germany) were coated overnight at 4° C. with neutravidin (Pierce) in 10:10 buffer at 3 μg/ml. Wells were aspirated and blocked for 1 hour at RT with PBS/1% casein. After this blocking step, wells were washed with PBS/0.05% Tween20. A biotinylated bivalent Nanobody against the constructs was added to the neutravidin coated plate at 2 μg/ml in PBS/0.1% casein and incubated for 1 hour at RT. After the incubation step of this capture tool, wells were washed 3 times with PBS/0.05% Tween20.\nPreparations of the standards, QC samples and dilutions of the test samples were performed in a non-coated (polypropylene) plate. For the standard curve and QC-samples, solutions at the required concentrations were prepared in PBS/0.1% casein and spiked into 100% monkey plasma. To prepare standards and QC samples, a 1/100 dilution of the pure monkey plasma dilutions was made in IgM-Reducing Agent (Immunochemistry Technologies, Bloomington, USA) supplemented with 2.5% pooled human plasma (referred to as sample diluent). For the test samples, dilution factors for the test samples were estimated, and ranged between 1/100 to 1/9000 for the reference of SEQ ID NO:165 tests and between 1/100 and 12000 for the construct of SEQ ID NO: 167. Samples were diluted 1/100 in sample diluent in a first step, and if needed, further dilution was done in sample diluent supplemented with 1% cynomolgus plasma.\nStandards, QC samples and diluted test samples were transferred onto the coated plate and incubated for 1 hour at RT. Afterwards the plates were washed followed by a complexation step with purified vWF (ZLB Behring). vWF diluted to 2.5 μg/ml for the assay for the reference of SEQ ID NO:165 and to 3 μg/ml for the assay for the construct of SEQ ID NO: 167 in PBS/0.1% casein was incubated on the plates for 30 minutes at RT. Plates were washed and Nanobody/vWF complexes bound to the capture tool detected with Rabbit anti-human vWF Ab (Dako, Denmark), diluted 1/2000 in PBS/0.1% casein and incubated for 30 minutes at RT. After washing, a 1/15000 dilution in PBS/0.1% casein of Horse-Radish-Peroxidase labelled goat anti-rabbit Ab (Dako, Denmark) was added to the plate and incubated for 30 minutes at RT. The enzyme coupled to the Ab catalyzes a chemical reaction with the substrate sTMB (3,3′,5,5′-tetramethylbenzidine, SDT reagents, Brussels, Belgium), resulting in a colorimetric change. After stopping this reaction after 10 minutes using HC1 (1N), the intensity of the colour was measured using a spectrophotometer at 450 nm. […]"}, "HSA": {"target": "HSA (Homo sapiens, UniProt P02768)", "experiment": "Biacore analysis of pH dependency of binding", "description": "as §1"}, "[4]": {"conditions": "threshold 20% RICO, i.v. bolus 2 mg/kg, male Cynomolgus monkey, mean n = 3"}}, "data": [{"molecule": "B1", "values": [{"measurement": "Tonset values", "setting": "VWF; estimated, i.v. application", "result": "~5", "unit": "min"}, {"measurement": "mean AUC under the threshold increase relative to vWF0001", "setting": "VWF; i.v. bolus", "result": 118, "unit": "fold"}, {"measurement": "time below the threshold increase relative to vWF0001", "setting": "VWF; i.v. bolus", "result": 105, "unit": "fold"}, {"measurement": "AUC below T", "setting": "VWF; [4]", "result": 781, "unit": "% RICO * h"}, {"measurement": "Time below T", "setting": "VWF; [4]", "result": 127, "unit": "h"}, {"measurement": "Tonset", "setting": "VWF; time % RICO first drops below threshold, i.v. bolus 2 mg/kg", "result": 0.074, "unit": "h"}, {"measurement": "Toffset", "setting": "VWF; time % RICO first returns above threshold, i.v. bolus 2 mg/kg", "result": 127, "unit": "h"}, {"measurement": "Effective concentration compared to VWF0001", "setting": "[1]; FIG. 12", "result": "similar"}, {"measurement": "inhibition of platelet adhesion to fibrillar collagen at arterial shear rate", "setting": "[1]; citrated human blood, wall shear rate 1600 s^−1, FIG. 12", "result": "dose-dependently and completely inhibit"}, {"measurement": "decrease of affinity at pH5", "setting": "cynoSA; pH5", "result": "about 10 fold"}, {"measurement": "pH at which the highest affinity was observed", "setting": "cynoSA; pH5, pH7 or pH8 tested", "result": 7}, {"measurement": "chemical modifications or proteolytic degradation", "setting": "[2]", "result": "neither chemical modifications nor proteolytic degradation occurred"}, {"measurement": "Vdss lower relative to vWF0001", "setting": "[3]", "result": 11, "unit": "fold"}, {"measurement": "dominant half-life (t½ dominant) increase relative to vWF0001", "setting": "[3]", "result": 85, "unit": "fold"}, {"measurement": "mean CL decrease compared to the control", "setting": "[3]", "result": 26, "unit": "fold"}, {"measurement": "AUCinf", "setting": "[3]; iv, 2 mg/kg", "result": 1590, "unit": "µg·h/mL"}, {"measurement": "C0", "setting": "[3]; iv, 2 mg/kg", "result": 46500, "unit": "ng/mL"}, {"measurement": "decrease of affinity at pH5", "setting": "HSA; pH5", "result": "about 10 fold"}, {"measurement": "pH at which the highest affinity was observed", "setting": "HSA; pH5, pH7 or pH8 tested", "result": 7}]}]}
